To fix the notation:
B2: R369A EGK (enzyme, Escherichia coli, UniProt P0A6F3 1-502, looked up)
chain: MTEKKYIVALDQGTTSSRAVVMDHDANIISVSQREFEQIYPKPGWVEHDPMEIWATQSSTLVEVLAKADISSDQIAAIGITNQRETTIVWEKETGKPIYNAIVWQCRRTAEICEHLKRDGLEDYIRSNTGLVIDPYFSGTKVKWILDHVEGSRERARRGELLFGTVDTWLIWKMTQGRVHVTDYTNASRTMLFNIHTLDWDDKMLEVLDIPREMLPEVRRSSEVYGQTNIGGKGGTRIPISGIAGDQQAALFGQLCVKEGMAKNTYGTGCFMLMNTGEKAVKSENGLLTTIACGPTGEVNYALEGAVFMAGASIQWLRDEMKLINDAYDSEYFATKVQNTNGVYVVPAFTGLGAPYWDPYARGAIFGLTAGVNANHIIRATLESIAYQTRDVLEAMQADSGIRLHALRVDGGAVANNFLMQFQSDILGTRVERPEVREVTALGAAYLAGLAVGFWQNLDELQEKAVIEREFRPGIETTERNYRYAGWKKAVKRAMAWEEHDE
B3: A65T EGK (enzyme, Escherichia coli, UniProt P0A6F3 1-502, looked up)
chain: MTEKKYIVALDQGTTSSRAVVMDHDANIISVSQREFEQIYPKPGWVEHDPMEIWATQSSTLVEVLTKADISSDQIAAIGITNQRETTIVWEKETGKPIYNAIVWQCRRTAEICEHLKRDGLEDYIRSNTGLVIDPYFSGTKVKWILDHVEGSRERARRGELLFGTVDTWLIWKMTQGRVHVTDYTNASRTMLFNIHTLDWDDKMLEVLDIPREMLPEVRRSSEVYGQTNIGGKGGTRIPISGIAGDQQAALFGQLCVKEGMAKNTYGTGCFMLMNTGEKAVKSENGLLTTIACGPTGEVNYALEGAVFMAGASIQWLRDEMKLINDAYDSEYFATKVQNTNGVYVVPAFTGLGAPYWDPYARGAIFGLTRGVNANHIIRATLESIAYQTRDVLEAMQADSGIRLHALRVDGGAVANNFLMQFQSDILGTRVERPEVREVTALGAAYLAGLAVGFWQNLDELQEKAVIEREFRPGIETTERNYRYAGWKKAVKRAMAWEEHDE

Data set [1] concerns the target B2. Kind of data set: linked-functions initial-velocity enzyme kinetics.
Data set [2] has as its target B3. Kind of data set: linked-functions initial-velocity enzyme kinetics.
Data set [3] deals with T1, Escherichia coli glycerol kinase (Escherichia coli, UniProt P0A6F3 1-502). The data set is described as follows: linked-functions initial-velocity enzyme kinetics.
Data set [4] has as its target B2. The data set is described as follows: linked-functions initial-velocity enzyme kinetics. The source holds these as a separate data set.
Data set [5] has as its target B3. The data set is described as follows: linked-functions initial-velocity enzyme kinetics. The source holds these as a separate data set.
In data set [6] the target is T1, Escherichia coli glycerol kinase. Kind of data set: linked-functions initial-velocity enzyme kinetics. This is another data set of the same source.
The data set “AUC” deals with the molecule itself. Kind of data set: AUC.

Read-outs that look alike come from different tables or passages of the source.

B1: IIA^Glc, the glucose-specific phosphocarrier protein of the phosphoenolpyruvate:glycose phosphotransferase system (natural protein)
chain: GLFDKLKSLVSDDKKDTGTIEIIAPLSGEIVNIEDVPDVVFAEKIVGDGIAIKPTGNKMVAPVDGTIGKIFETNHAFSIESDSGVELFVHFGIDTVELKGEGFKRIAEEGQRVKVGDTVIEFDLPLLEEKAKSTLTPVVISNMDEIKELIKLSGSVTVGETPVIRIKK
The Kd is the concentration at which binding is half-saturated. Lower therefore signals a tighter complex. For B1, the Kd in the data set with R369A EGK [1] was 1.8 µM; in the data set with A65T EGK [2], 8 µM; in data set [3] it was 4.6 µM; with R369A EGK [4], 2 µM; with A65T EGK [5] it was 28 µM; in data set [6] it was 7 µM.

By stoichiometry N is commonly meant a count of units in the complex or per binding partner. For B2, the “stoichiometry N” value in “AUC” worked out at 4.

With B3, the binding result in the data set “AUC” was “binds”.
